Literature values as cited in PMC2981439.

Molecular target: quinone MADH (Paracoccus denitrificans) (UniProt P22619)
UniProt P22619, sequence (P22619 58-188, chain 1 of 2): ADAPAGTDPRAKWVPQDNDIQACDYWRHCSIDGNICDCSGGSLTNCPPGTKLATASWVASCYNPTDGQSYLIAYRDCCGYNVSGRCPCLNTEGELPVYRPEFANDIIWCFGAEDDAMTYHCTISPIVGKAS
UniProt P22619, sequence (P29894 29-417, chain 2 of 2, further chain): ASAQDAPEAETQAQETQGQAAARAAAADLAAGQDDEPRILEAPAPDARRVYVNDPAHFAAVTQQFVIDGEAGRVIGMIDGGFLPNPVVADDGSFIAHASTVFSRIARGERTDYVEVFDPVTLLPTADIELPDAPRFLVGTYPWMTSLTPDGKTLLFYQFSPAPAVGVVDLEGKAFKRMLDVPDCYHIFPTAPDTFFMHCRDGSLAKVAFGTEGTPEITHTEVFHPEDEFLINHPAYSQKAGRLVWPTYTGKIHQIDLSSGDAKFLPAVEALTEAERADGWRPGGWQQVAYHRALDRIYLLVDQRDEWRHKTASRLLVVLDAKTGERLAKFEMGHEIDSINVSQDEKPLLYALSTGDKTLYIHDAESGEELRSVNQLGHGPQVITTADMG

## MauG (from UniProt Q51658)
  Kd: 10.1 µM
